Results reported in US5451411A, “Methods and compositions for the oral delivery of therapeutic agents” (University of Washington, priority 1993, dated 1995).

How the values were obtained:
[1] = tested on: mouse anti-TGF-β1 monoclonal antibody, 1D11; experiment: ELISA measured binding activity (immunoreactivity) of TGF-β1; settings: solution without alginate, up to 0.14% w/v additive
Description: The ability of released TGF-β1 from both untreated and acid treated beads (as described above) to be recognized (bound) by a monoclonal antibody was assayed by ELISA as follows. An enzyme linked immunosorbent assay (ELISA) was used to quantitate the amount of immunoreactive TGF-β1 released from the untreated (PBS) and acid treated (HCl) alginate beads. The ELISA was based on the ability of a mouse anti-TGF-β1 monoclonal antibody, 1D11 (Bristol-Myers Squibb, Seattle, WA), to bind to the TGF-β1 molecule. When the 1D11 antibody was coated on 96-well immunoassay plates it captured TGF-β1 from the applied sample and standard solutions. Captured TGF-β1 was then bound by biotinylated 1D11 antibody which in turn was bound by a horseradish peroxidase/avidin D conjugate (Vector Labs cat #A-2004). A color reaction occurred by adding a chromophore/substrate solution of 3,3',5,5'-tetramethylbenzidine in CPB containing hydrogen peroxide. The reaction was stopped with the addition of 1 N sulfuric acid and the A450 was determined by a plate reader. Concentrations of the unknown samples were quantified relative to a TGF-β1 standard curve run on the same plate.
The immunoreactivity of TGF-β1 in solution in the presence of anionic amino acids, polyanions and polycations was studied using the ELISA procedure described in Example 2. To 1 mg/mL solutions of TGF-β1 in 5 mM HCl was added from 0 to 0.14%(w/v) of glutamic acid, aspartic acid, poly-L-aspartic acid (PLAA, Mw=13 kDa), sodium carboxymethyl cellulose (Na CMC, high viscosity), or polyacrylic acid (PAA, 2, 90 or 750 kDa). The reactivity of the TGF-β1 was then determined by the ELISA procedure, as described in Example 2.
Next, the ability of the additives to […] was investigated. Alginate solutions were prepared in accordance with the procedure of Example 1, incorporating 50 μg of TGF-β1, 0-0.15% (w/v) of sodium alginate and 0.1-1.0 mg (up to 0.125% w/v) of PAA (750 kDa), PLAA (13 kDa), NaCMC high viscosity or glutamic acid. The immunoreactivity of TGF-β1 was determined by ELISA as described in Example 2.
Alginate beads were prepared according to the procedure of Example 1 incorporating 50 μg TGF-β1 and 0.1-1.0 mg of additives. […] In addition, Poly-L-Lysine (PLL;123 kDa) was incorporated as a potential polycationic competitor. The additives were incorporated at an alginate:additive w/w ratio of from 75:10 to 75:1 as indicated below in Table 3.
To further assess the effect of amount of PAA incorporation on immunoreactivity of released TGF-β1, alginate beads were prepared by incubating TGF-β1 and PAA (90 kDa) for either 5 or 60 minutes (see FIG. 7) in w/w ratios of 75:1, 75:6 and 75:10, followed by dilution, addition of alginate, and bead formation in 1% CaCl2. The beads were acid treated in 0.1 N HCl at 37° C. for 30 minutes and then incubated at 37° C. in PBS, pH 7.4.

gastrointestinal tract = settings: sequential chemotherapeutic protocols; cited from earlier work
[2] = tested on: cells of epithelial origin, including human and rodent derived intestinal cells; settings: cited from earlier work
[3] = assay type: physicochemical
Description: Beads prepared in accordance with the procedure of Example 1 and containing 50 μg of ^125 I-TGF-β1 in 3.75-7.5 mg (original weight of alginate) were transferred to 15.0 mL polypropylene tubes containing 13.0 mL of PBS or of 0.1 N HCl at 37° C. In some cases, 1% BSA was added to the release media. The polypropylene tubes were gently shaken using a orbital shaker (200 rotations/minutes). At selected times, 100 μL aliquots were taken and counted for radioactivity. Care was taken so that aliquots contained no beads or bead fragments. The cumulative ^125 I-TGF-β1 released from the beads was calculated after correcting for volume changes. After 24 hours, the beads in 0.1 N HCl were transferred to PBS.
Alginate beads containing TGF-β1 and 90 kDa PAA (75:10 w/w in alginate:PAA) were prepared following the procedure of Example 1, and were acid treated for 30 minutes at 37° C. in 0.1 N HCl, as described in Example 2. The beads were then placed in PBS, pH 7.4, and the immunoreactivity of released TGF-β1 was determined by ^125 I radiolabel and ELISA, as described in Example 2. In addition, a growth inhibitory assay (GIA) was used to determine the bioactivity of the TGF-β1. The GIA measures the ability of TGF-β1 to inhibit the growth of mink lung epithelial cells (ATCC #CCL64) (T. Ikedaet al., "Human Transforming Growth Factor Type β2: Production By a Prostatic Adenocarcinoma Cell Line, Purification and Initial Characterization," Biochemistry 26:2406-2410 (1987)). The activity of the growth factor was determined by the inhibitory response of the cells to different concentrations of TGF-β1. Cell viability was based on the enzymatic cleavage by metabolically active cells of a tetrazolium salt into an orange/red formazan product. Prior to the assay cells were trypsinized and plated in a 96-well flat bottomed plate (Costar) at a concentration of 1000 cells/well. After allowing the cells to attach, samples containing the TGF-β1 and a reference standard were diluted to concentrations ranging from 1000 to 1.95 pg/ml and added to the wells. The cells were incubated for four days after which time a 100 μL solution containing 25 μg of sodium 3"-[1-(phenylamino)-carbonyl]-3,4-tetrazolium-bis(4-methoxy-6-nitro) benzene sulfonic acid hydrate (Diagnostic Chemicals, Ltd.) and 5 mM phenazine methosulfate (Aldrich) in media was added to each well. The cells were then incubated for 7 hours and the plates read on a microplate reader at an absorbance of 450 nm with a 630 nm reference filter. The specific activity of a sample was calculated relative to the reference material.

[4] = tested on: mouse anti-Oncostatin-M antibody, 11R2; experiment: ELISA of immunoreactive Oncostatin-M released from alginate beads; assay type: binding; settings: PBS
Description: Following the procedure of Example 1, alginate beads were prepared from 800 μl of an aqueous solution containing 25 μg of Oncostatin-M (site source) and 3750 μg of sodium alginate (Sigma, Low Viscosity). To a portion of the solution was added 300 μg of PAA (Jannsen, 90 kDa) prior to bead formation. Samples of the beads, both with and without added PAA, were subject to acid treatment by incubating the beads in 0.1 N HCl at 37° C. for 30 minutes, as described in Example 2. The beads were then placed in PBS, and the percentage amount of immunoreactive Oncostatin-M was determined by ELISA assay following the procedure of Example 2 using a mouse anti-Oncostatin-M antibody, 11R2 (Bristol-Myers Squibb, Seattle, WA) as the capture antibody and biotinylated 1R10 mouse anti-Oncostatin-M antibody (Bristol-Myers Squibb, Seattle, WA) as the probe, followed by horseradish peroxidase/avidin D. The results are shown in FIG. 8, in which (.quadrature.) represents acid treated beads containing PAA, represents bead containing PAA which were not acid treated, represents beads without PAA which were acid treated, and represents beads without PAA which were not acid treated.

[5] = tested on: mouse antiamphiregulin monoclonal antibody, 6R1C1; experiment: ELISA of immunoreactive Amphiregulin released from alginate beads; assay type: binding; settings: PBS
Description: The procedure of Example 10 was repeated substituting 25 μg of Amphiregulin for the Oncostatin-M of Example 11 and using a mouse antiamphiregulin monoclonal antibody, 6R1C1 (Bristol-Myers Squibb, Seattle, WA) as the capture antibody, followed by a goat anti-mouse horseradish peroxidase probe (Southern Biotech). The results are shown in FIG. 9 in which the symbols have the meanings of FIG. 8.

N[C@@H](CC(=O)O)C(=O)O [aspartic acid, L-aspartic acid, reference compound]
Interference of additive with ELISA measured binding activity of TGF-β1 [1]: interfered to a lesser extent

Nc1ccn([C@@H]2O[C@H](CO)[C@@H](O)[C@@H]2O)c(=O)n1 [cytosine arabinoside]
Gastrointestinal toxic alterations (gastrointestinal tract): surface and glandular epithelial atypia, immaturity and necrosis

O=c1[nH]c(=O)n([C@H]2C[C@H](O)[C@@H](CO)O2)cc1F [floxuridine]
Gastrointestinal toxic alterations (gastrointestinal tract): surface and glandular epithelial atypia, immaturity and necrosis

N[C@@H](CCC(=O)O)C(=O)O [glutamic acid, L-glutamic acid, reference compound]
Interference of additive with ELISA measured binding activity of TGF-β1 [1]: interfered to a lesser extent

CO[C@@]12[C@H](COC(N)=O)C3=C(C(=O)C(C)=C(N)C3=O)N1C[C@@H]1N[C@@H]12 [mitomycinC]
Gastrointestinal toxic alterations (gastrointestinal tract): surface and glandular epithelial atypia, immaturity and necrosis

TGF-β
Growth inhibition [2]: inhibit the growth of many cells of epithelial origin

^125 I-TGF-β1: TGF-β1 radioiodinated by a modified chloramine-T method
125I-TGF-β1 released in 0.1 N HCl ([3]; 0.1 N HCl, 24 hours, 37° C.): essentially no
Further 125I-TGF-β1 release ([3]; PBS, even after 72 hours): no further ^125 I-TGF-β1 was released
Lag period before release ([3]; PBS, pH 7.4, 37° C.): 4 h
Cumulative 125I-TGF-β1 released (plateau) ([3]; PBS, pH 7.4, 37° C., after 20 hours, no acid treatment, no PAA): 81%
125I-TGF-β1 released after transfer from 0.1 N HCl to PBS ([3]; transferred to PBS after 24 hours in 0.1 N HCl, in 2.5 hours): 100%

B1: Oncostatin-M: 25 μg of Oncostatin-M encapsulated in alginate beads with or without PAA (protein, UniProt P13725 26-221, looked up)
Oncostatin-M: AAIGSCSKEYRVLLGQLQKQTDLMQDTSRLLDPYIRIQGLDVPKLREHCRERPGAFPSEETLRGLGRRGFLQTLNATLGCVLHRLADLEQRLPKAQDLERSGLNIEDLEKLQMARPNILGLRNNIYCMAQLLDNSDTAEPTKAGRGASQPPTPTPASDAFQRKLEGCRFLHGYHRFMHSVGRVFSKWGESPNRSRR
modifications: alginate bead encapsulation
notes: 25 μg of Oncostatin-M encapsulated in alginate beads with or without PAA
Immunoreactive Oncostatin-M released, acid treated beads containing PAA ([4]; PAA 90 kDa): 85%
Immunoreactive Oncostatin-M released, non acid treated beads containing PAA ([4]; PAA 90 kDa): 38%
Immunoreactive Oncostatin-M released, "non acid treated beads with PAA" (second value) [4]: 20%
Immunoreactive Oncostatin-M released, acid treated beads without PAA [4]: 18%

B2: Amphiregulin: 25 μg of Amphiregulin encapsulated in alginate beads with or without PAA (protein, UniProt P15514 101-187, looked up)
Amphiregulin: SVRVEQVVKPPQNKTESENTSDKPKRKKKGGKNGKNRRNRKKKNPCNAEFQNFCIHGECKYIEHLEAVTCKCQQEYFGERCGEKSMK
modifications: encapsulated in alginate beads
notes: 25 μg of Amphiregulin encapsulated in alginate beads with or without PAA
Immunoreactive Amphiregulin released, acid treated beads containing PAA [5]: 67%
Immunoreactive Amphiregulin released, acid treated beads without PAA [5]: 31%
Immunoreactive Amphiregulin released, non acid treated beads containing PAA [5]: 52%
Immunoreactive Amphiregulin released, non acid treated beads without PAA [5]: 22%
